For the experiment, the target named is GFP-Hace1 (HECT domain and Ankyrin repeat Containing E3 ubiquitin-protein ligase 1) (UniProt Q8IYU2).

Bounds are passed on as bounds.

Chain of UniProt Q8IYU2 (Q8IYU2 whole entry, the tested form may be a part): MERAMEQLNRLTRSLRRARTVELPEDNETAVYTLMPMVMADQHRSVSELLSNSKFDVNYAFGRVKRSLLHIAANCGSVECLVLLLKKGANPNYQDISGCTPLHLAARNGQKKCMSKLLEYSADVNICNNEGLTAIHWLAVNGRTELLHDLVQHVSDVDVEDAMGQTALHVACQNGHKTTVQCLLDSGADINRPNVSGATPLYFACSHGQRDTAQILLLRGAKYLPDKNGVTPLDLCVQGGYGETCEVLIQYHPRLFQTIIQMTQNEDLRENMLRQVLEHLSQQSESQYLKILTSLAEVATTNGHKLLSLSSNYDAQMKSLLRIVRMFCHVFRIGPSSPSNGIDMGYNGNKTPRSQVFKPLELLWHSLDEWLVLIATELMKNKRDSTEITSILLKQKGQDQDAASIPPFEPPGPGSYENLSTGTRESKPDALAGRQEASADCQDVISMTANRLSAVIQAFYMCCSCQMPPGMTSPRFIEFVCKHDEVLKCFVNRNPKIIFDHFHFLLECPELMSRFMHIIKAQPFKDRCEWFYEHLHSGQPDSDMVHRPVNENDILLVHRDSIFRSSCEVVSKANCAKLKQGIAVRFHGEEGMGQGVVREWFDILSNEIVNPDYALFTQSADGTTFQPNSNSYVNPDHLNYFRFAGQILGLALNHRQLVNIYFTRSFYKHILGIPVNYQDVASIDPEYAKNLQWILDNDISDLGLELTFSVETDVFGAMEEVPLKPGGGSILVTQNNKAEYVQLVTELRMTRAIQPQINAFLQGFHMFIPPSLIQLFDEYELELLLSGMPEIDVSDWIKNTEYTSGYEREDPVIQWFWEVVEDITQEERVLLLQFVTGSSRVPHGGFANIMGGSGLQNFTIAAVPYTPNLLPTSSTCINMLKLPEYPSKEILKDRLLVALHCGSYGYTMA

In the case of “Rac1 (from UniProt P63000 1-192) (natural protein; other documents disagree on this pair)”, the fraction of the total Rac1 pool bound by Hace1 was less than 10%.
